Reference: US8465945B2, “Method for production and use of mite group 1 proteins” (Merck Patent GmbH, priority 1999, dated 2013)

Legend:
IgE = conditions: cited from earlier work; for IgE reactivity relative to the native protein: literature reports (Chua et al 1992; Shoji et al 1996, 1997)
[1] = system: IgE from mite-allergic dog sera; assay: ELISA, binding of IgE from dog sera to coated Der f 1 proteins or mite extracts, detected with FcεR1α-biotin
Procedure: Native or recombinant Der f 1 proteins in 100 μl CBC buffer (50 mM sodium carbonate, pH 9.6) were coated onto wells (100 ng per well) of Immulon II microtiter plates (available from Dynex Technologies, Chantilly, Va.) by incubation at 4° C., covered, overnight. Excess fluid was removed and wells were blocked with 200 μl Assay Buffer (4% fetal calf serum (available from Summit Laboratories, Fort Collins, Colo.) in phosphate buffered saline (PBS, recipe in Sambrook, ibid.), plus 0.05% Tween-20 (available from Sigma, St. Louis, Mo.)) for one hour at room temperature. Plates were then washed for 4 cycles on an automatic plate washer (Ultrawash, available from Dynatech Laboratories) using PBS with 0.05% Tween-20. […] Control wells were treated identically except that no serum was added. Plates were then washed as described above. Biotinylated human IgE receptor alpha chain (FcεR1α-biotin) (100 μl of 1.3 ng/ml) prepared as described in U.S. Pat. No. 5,945,294, ibid., was added and incubated for one hour at room temperature. After this incubation, plates were washed as described above. Streptavidin-horseradish peroxidase conjugate (0.5 mg/ml, available from KPL Labs, Gaithersburg, Md.) was added at a 1:5000 dilution in Assay Buffer for one hour at room temperature, after which plates were washed as described above. TMB Peroxidase substrate system, 2 part (available from KPL Labs, #0-76-00), added at 100 μl per well, was used according to the manufacturer's directions. The color reaction was allowed to proceed until good color development was reached (about 10-15 min); then the reaction was stopped with 100 μl per well of 1 M phosphoric acid. Bound IgE was determined by measuring absorbance (Optical Density, or OD) at 450 nm (nanometers) using an ELISA plate reader (such as Spectramax”, Molecular Devices, Sunnyvale, Calif.). Background OD readings in the control wells were subtracted from all numbers. Results are reported in Tables 1, 2 and 3 as OD multiplied by 1000. OD numbers greater than 100 are considered to be positive for a reaction with IgE. P. pastoris-expressed proteins are denoted in the Tables as Pichia expressed proteins.

[2] = system: IgE from mite-allergic or normal human sera; assay: ELISA, binding of IgE from human sera to coated Der f 1 proteins or mite extracts, detected with FcεR1α-biotin
[3] = system: IgE from pooled mite-allergic human sera; assay: Monoclonal Capture ELISA (Example 8B, Table 7); type: binding
Procedure: Assays were carried out as follows. A microtiter plate as described in Example 5 was coated overnight at 4° C. with 100 ng/well of anti-Der f 1 protein monoclonal antibody 6A8, denoted herein as anti-Der f 1 MAb 6A8, provided by Dr. Martin Chapman. The plate was washed in the manner described above. The following proteins were then added to wells, having been diluted in Assay Buffer in a 2-fold dilution series, from 0.75 to 50 ng/well: Heska native Derf1, P. pastoris-expressed PDerf1303b, and E. coli-expressed PDerf1303c. After incubation for 1 hour at room temperature, plates were washed as described in Example 5. Then 100 μl per well of a 1:1000 dilution in Assay Buffer of biotinylated anti-Der f 1 monoclonal antibody 4C1, also denoted anti-Der f 1 MAb 4C1, provided by Dr. Martin Chapman, was added for 1 hour at room temperature. Plates were washed, streptavidin-HRP conjugate was added, and plates were developed as described in Example 5.
B. The Der f 1 proteins described in Example 8B were reacted as described in Example 6 with a pool of serum samples collected from 16 mite-allergic human patients.

B1: S. cerevisiae-expressed Der p 1 proenzyme: Recombinant Der p 1 pro-form produced in S. cerevisiae, solubilized and renatured (Chua et al) (protein, UniProt P08176 19-320, looked up)
pro-form: RPSSIKTFEEYKKAFNKSYATFEDEEAARKNFLESVKYVQSNGGAINHLSDLSLDEFKNRFLMSAEAFEHLKTQFDLNAETNACSINGNAPAEIDLRQMRTVTPIRMQGGCGSCWAFSGVAATESAYLAYRNQSLDLAEQELVDCASQHGCHGDTIPRGIEYIQHNGVVQESYYRYVAREQSCRRPNAQRFGISNYCQIYPPNVNKIREALAQTHSAIAVIIGIKDLDAFRHYDGRTIIQRDNGYQPNYHAVNIVGYSNAQGVDYWIVRNSWDTNWGDNGYGYFAANIDLMMIEEYPYVVIL
modifications: pro-form S. cerevisiae-expressed
sera reactive, of 11 sera reactive with the native protein (IgE; Chua et al): 9
IgE reactivity relative to the native protein (IgE): about 80%

B2: Der f 1 pro-form: Recombinant Der f 1 pro-form from baculovirus expression system in insect cells (Shoji et al) (protein, listed as Dermatophagoides farinae)
chain: RPASIKTFEEFKKAFNKNYATVEEEEVARKNFLESLKYVEANKGAINHLSDLSLDEFKNRYLMSAEAFEQLKTQFDLNAETSACRINSVNVPSELDLRSLRTVTPIRMQGGCGSCWAFSGVAATESAYLAYRNTSLDLSEQELVDCASQHGCHGDTIPRGIEYIQQNGVVEERSYPYVAREQRCRRPNSQHYGISNYCQIYPPDVKQIREALTQTHTAIAVIIGIKDLRAFQHYDGRTIIQHDNGYQPNYHAVNIVGYGSTQGDDYWIVRNSWDTTWGDSGYGYFQAGNNLMMIEQYPYVVIM
IgE reactivity relative to the native protein (IgE): 20%

B3: Chapman native Derf1: Native purified Der f 1 protein, purified in the laboratory of Martin Chapman (protein)
chain: TSACRINSVNVPSELDLRSLRTVTPIRMQGGCGSCWAFSGVAATESAYLAYRNTSLDLSEQELVDCASQHGCHGDTIPRGIEYIQQNGVVEERSYPYVAREQRCRRPNSQHYGISNYCQIYPPDVKQIREALTQTHTAIAVIIGIKDLRAFQHYDGRTIIQHDNGYQPNYHAVNIVGYGSTQGDDYWIVRNSWDTTWGDSGYGYFQAGNNLMMIEQYPYVVIM
OD, bound IgE ([1]; Assay Number 1, serum dog pool): 341 OD multiplied by 1000
OD, bound IgE ([1]; Assay Number 1, serum dog-1): 6 OD multiplied by 1000
OD, bound IgE ([1]; Assay Number 1, serum dog-2): 1408 OD multiplied by 1000
OD, bound IgE ([1]; Assay Number 1, serum dog-3): 3125 OD multiplied by 1000
OD, bound IgE ([1]; Assay Number 2, dog sera pool A 146): 220 OD multiplied by 1000
OD, bound IgE ([1]; Assay Number 2, dog sera pool KS338): 19 OD multiplied by 1000
OD, bound IgE ([2]; Assay Number 1, serum human 1916): 17 OD multiplied by 1000
OD, bound IgE ([2]; Assay Number 1, serum human3848): 2336 OD multiplied by 1000
OD, bound IgE ([2]; Assay Number 1, serum human 3958): 1261 OD multiplied by 1000
OD, bound IgE ([2]; Assay Number 1, serum human 3960): 1024 OD multiplied by 1000
OD, bound IgE ([2]; Assay Number 1, serum human 3961): 326 OD multiplied by 1000
OD, bound IgE ([2]; Assay Number 1, serum human 3987): 1216 OD multiplied by 1000
OD, bound IgE ([2]; Assay Number 1, serum human 4289): 287 OD multiplied by 1000
OD, bound IgE ([2]; Assay Number 1, serum human 4467): 615 OD multiplied by 1000
OD, bound IgE ([2]; Assay Number 1, serum human 5207): 2669 OD multiplied by 1000
OD, bound IgE ([2]; Assay Number 1, serum human pool): 1531 OD multiplied by 1000
OD, bound IgE ([2]; Assay Number 2, serum Heska human B): 0 OD multiplied by 1000
OD, bound IgE ([2]; Assay Number 2, serum Heska human C): 0 OD multiplied by 1000
OD, bound IgE ([2]; Assay Number 2, serum Heska human D): 0 OD multiplied by 1000
OD, bound IgE ([2]; Assay Number 2, serum Heska human E): 2 OD multiplied by 1000
OD, bound IgE ([2]; Assay Number 2, serum Heska human F): 0 OD multiplied by 1000
OD, bound IgE ([2]; Assay Number 2, serum Heska human G): 0 OD multiplied by 1000
OD, bound IgE ([2]; Assay Number 2, serum Heska human H): 0 OD multiplied by 1000
OD, bound IgE ([2]; Assay Number 2, serum Heska human I): 0 OD multiplied by 1000
OD, bound IgE ([2]; Assay Number 2, serum Heska human J): 0 OD multiplied by 1000
OD, bound IgE ([2]; Assay Number 2, serum Heska human K): 0 OD multiplied by 1000
OD, bound IgE ([2]; Assay Number 2, serum Heska human L): 0 OD multiplied by 1000
OD, bound IgE ([2]; Assay Number 2, serum Heska human M): 0 OD multiplied by 1000
OD, bound IgE ([2]; Assay Number 2, serum Heska human N): 373 OD multiplied by 1000
OD, bound IgE ([2]; Assay Number 2, serum Heska human O): 0 OD multiplied by 1000
OD, bound IgE ([2]; Assay Number 2, serum Heska human P): 0 OD multiplied by 1000
OD, bound IgE ([2]; Assay Number 2, serum Heska human Q): 0 OD multiplied by 1000
OD, bound IgE ([2]; Assay Number 2, serum Heska human R): 0 OD multiplied by 1000
OD, bound IgE ([2]; Assay Number 2, serum human 1916): 8 OD multiplied by 1000
OD, bound IgE ([2]; Assay Number 2, serum human 3848): 1726 OD multiplied by 1000
OD, bound IgE ([2]; Assay Number 2, serum human 3958): 822 OD multiplied by 1000
OD, bound IgE ([2]; Assay Number 2, serum human 3960): 522 OD multiplied by 1000
OD, bound IgE ([2]; Assay Number 2, serum human 3961): 169 OD multiplied by 1000
OD, bound IgE ([2]; Assay Number 2, serum human 3987): 846 OD multiplied by 1000
OD, bound IgE ([2]; Assay Number 2, serum human 4289): 173 OD multiplied by 1000
OD, bound IgE ([2]; Assay Number 2, serum human 4467): 353 OD multiplied by 1000
OD, bound IgE ([2]; Assay Number 2, serum human 5207): 2171 OD multiplied by 1000
OD, bound IgE ([2]; Assay Number 2, serum human pool): 1236 OD multiplied by 1000
OD, bound IgE ([2]; Table 3, sera 429, PDerf1303b preparation number A166-26, PDerf1223b preparation 1000-7): 152 OD multiplied by 1000
OD, bound IgE ([2]; Table 3, sera 1916, PDerf1303b preparation number A166-26, PDerf1223b preparation 1000-7): 14 OD multiplied by 1000
OD, bound IgE ([2]; Table 3, sera 3848, PDerf1303b preparation number A166-26, PDerf1223b preparation 1000-7): 1033 OD multiplied by 1000
OD, bound IgE ([2]; Table 3, sera 3958, PDerf1303b preparation number A166-26, PDerf1223b preparation 1000-7): 1067 OD multiplied by 1000
OD, bound IgE ([2]; Table 3, sera 3960, PDerf1303b preparation number A166-26, PDerf1223b preparation 1000-7): 738 OD multiplied by 1000
OD, bound IgE ([2]; Table 3, sera 3961, PDerf1303b preparation number A166-26, PDerf1223b preparation 1000-7): 221 OD multiplied by 1000
OD, bound IgE ([2]; Table 3, sera 3987, PDerf1303b preparation number A166-26, PDerf1223b preparation 1000-7): 865 OD multiplied by 1000
OD, bound IgE ([2]; Table 3, sera 4467, PDerf1303b preparation number A166-26, PDerf1223b preparation 1000-7): 489 OD multiplied by 1000
OD, bound IgE ([2]; Table 3, sera 5207, PDerf1303b preparation number A166-26, PDerf1223b preparation 1000-7): 1836 OD multiplied by 1000
OD, bound IgE ([2]; Table 3, sera human pool, PDerf1303b preparation number A166-26, PDerf1223b preparation 1000-7): 1114 OD multiplied by 1000
OD, bound IgE ([2]; Table 6, pool of sera from 16 mite-allergic human patients, 6.2 ng protein per well): 17 OD
OD, bound IgE ([2]; Table 6, pool of sera from 16 mite-allergic human patients, 12.5 ng protein per well): 116 OD
OD, bound IgE ([2]; Table 6, pool of sera from 16 mite-allergic human patients, 25 ng protein per well): 215 OD
OD, bound IgE ([2]; Table 6, pool of sera from 16 mite-allergic human patients, 50 ng protein per well): 488 OD
OD, bound IgE ([2]; Table 6, pool of sera from 16 mite-allergic human patients, 100 ng protein per well): 581 OD
OD, bound IgE ([2]; Table 6, pool of sera from 16 mite-allergic human patients, 200 ng protein per well): 584 OD
OD, Monoclonal Capture ELISA ([3]; 0.39 ng protein per well): 1480 OD
OD, Monoclonal Capture ELISA ([3]; 0.78 ng protein per well): 2186 OD
OD, Monoclonal Capture ELISA ([3]; 1.55 ng protein per well): 2447 OD
OD, Monoclonal Capture ELISA ([3]; 3.1 ng protein per well): 2597 OD
OD, Monoclonal Capture ELISA ([3]; 6.25 ng protein per well): 2620 OD
OD, Monoclonal Capture ELISA ([3]; 12.5 ng protein per well): 2483 OD
OD, Monoclonal Capture ELISA ([3]; 25 ng protein per well): 2249 OD
